Test results: publication PMC7815066 (Chem, 2021)

Columns and labels:
[1] = molecular target: E. coli bo3 oxidase (E. coli); assay: mass photometry
[2] = molecular target: E. coli bo3 oxidase (E. coli); assay: SEC-MALS
mass photometry = molecular target: the molecule itself; assay: mass photometry
[3] = molecular target: T1, Streptomyces lividans potassium channel KcsA (Streptomyces lividans), P0A334; assay: mass photometry; details: remark: other sources report otherwise
T1 chain: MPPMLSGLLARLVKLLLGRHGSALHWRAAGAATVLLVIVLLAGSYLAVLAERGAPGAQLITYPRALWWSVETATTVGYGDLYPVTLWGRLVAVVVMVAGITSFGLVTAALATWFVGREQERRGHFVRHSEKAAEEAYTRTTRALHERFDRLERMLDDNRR

[4] = molecular target: T1, Streptomyces lividans potassium channel …; assay: mass photometry; details: remark: other sources report otherwise

E. coli bo3 oxidase (complex)
relative abundance of dimers [1]: 20%
stoichiometry N [1]: 2
relative abundance of dimers [2]: 28%
relative abundance of monomers [2]: 72%
stoichiometry N [2]: 2

B1: E. coli outer membrane protein F (natural protein)
chain: AEIYNKDGNKVDLYGKAVGLHYFSKGNGENSYGGNGDMTYARLGFKGETQINSDLTGYGQWEYNFQGNNSEGADAQTGNKTRLAFAGLKYADVGSFDYGRNYGVVYDALGYTDMLPEFGGDTAYSDDFFVGRVGGVATYRNSNFFGLVDGLNFAVQYLGKNERDTARRSNGDGVGGSISYEYEGFGIVGAYGAADRTNLQEAQPLGNGKKAEQWATGLKYDANNIYLAANYGETRNATPITNKFTNTSGFANKTQDVLLVAQYQFDFGLRPSIAYTKSKAKDVEGIGDVDLVNYFEVGATYYFNKNMSTYVDYIINQIDSDNKLGVGSDDTVAVGIVYQF
stoichiometry N (mass photometry): 3

B2: Streptomyces lividans potassium channel KcsA, P0A334 1-160 (natural protein)
chain: T1 chain
stoichiometry N [3]: 4
stoichiometry N [4]: 4
